According to the supplement of paper PMC11246515:
± gives the standard deviation of the averaged measurements.

Assay: total protein half-life in vivo (active degradation + dilution); higher = more stable protein
[1] = E. coli NCM3722 delta-clpP delta-lon delta-hslV, growth: N-lim chemostat, doubling time 6 h
[2] = E. coli NCM3722 delta-clpP, growth: N-lim chemostat, doubling time 6 h
[3] = E. coli NCM3722 delta-hslV, growth: N-lim chemostat, doubling time 6 h
[4] = E. coli NCM3722 delta-lon, growth: N-lim chemostat, doubling time 6 h
[5] = E. coli NCM3722 delta-smpB, growth: N-lim chemostat, doubling time 6 h
[6] = wild type E. coli NCM3722, growth: C-lim chemostat, doubling time 3 h
[7] = wild type E. coli NCM3722, growth: C-lim chemostat, doubling time 6 h
[8] = wild type E. coli NCM3722, growth: C-lim chemostat, doubling time 12 h
[9] = wild type E. coli NCM3722, growth: N-lim chemostat, doubling time 6 h
[10] = wild type E. coli NCM3722, growth: N-lim chemostat, doubling time 12 h
[11] = wild type E. coli NCM3722, growth: P-lim chemostat, doubling time 6 h
[12] = wild type E. coli NCM3722, growth: P-lim chemostat, doubling time 12 h

Row | Sequence | total protein half-life in vivo [1] | total protein half-life in vivo [2] | total protein half-life in vivo [3] | total protein half-life in vivo [4] | total protein half-life in vivo [5] | total protein half-life in vivo [6] | total protein half-life in vivo [7] | total protein half-life in vivo [8] | total protein half-life in vivo [9] | total protein half-life in vivo [10] | total protein half-life in vivo [11] | total protein half-life in vivo [12]
1 | MMRIALFLLTNLAVMVVFGLVLSLTGIQSSSVQGLMIMALLFGFGGSFVSLLMSKWMALRSVGGEVIEQPRNERERWLVNTVATQARQAGIAMPQVAIYHAPDINAFATGARRDASLVAVSTGLLQNMSPDEAEAVIAHEISHIANGDMVTMTLIQGVVNTFVIFISRILAQLAAGFMGGNRDEGEESNGNPLIYFAVATVLELVFGILASIITMWFSRHREFHADAGSAKLVGREKMIAALQRLKTSYEPQEATSMMALCINGKSKSLSELFMTHPPLDKRIEALRTGEYLK | 4.24 ± 0.051 h | 5.6 ± 0.59 h | 5.25 ± 0.11 h | 4.77 ± 0.29 h | 4.77 ± 0.48 h | 2.45 ± 0.076 h | 4.83 ± 0.3 h | 8.92 ± 1.5 h | 5.48 ± 0.92 h | 10.5 ± 1.2 h | 4.81 ± 0.22 h | 7.97 ± 0.28 h
2 | MMRKMLLAAALSVTAMTAHADYQCSVTPRDDVIVSPQTVQVKGENGNLVITPDGNVMYNGKQYSLNAAQREQAKDYQAELRSTLPWIDEGAKSRVEKARIALDKIIVQEMGESSKMRSRLTKLDAQLKEQMNRIIETRSDGLTFHYKAIDQVRAEGQQLVNQAMGGILQDSINEMGAKAVLKSGGNPLQNVLGSLGGLQSSIQTEWKKQEKDFQQFGKDVCSRVVTLEDSRKALVGNLK [P0ADS9] | 3.83 ± 0.21 h | 5 ± 1 h | 5.36 ± 0.32 h | 6.04 ± 0.83 h | 5.818 ± 0.046 h | 2.92 ± 0.17 h | 5.11 ± 0.8 h | 8.05 ± 1.5 h | 5.76 ± 0.15 h | 10.3 ± 0.12 h | 5.0188 ± 0.0027 h | 10 ± 0.48 h
3 | MMSESNKQQAVNKLTEIVANFTAMISTRMPDDVVDKLKQLKDAETSSMGKIIYHTMFDNMQKAIDLNRPACQDTGEIMFFVKVGSRFPLLGELQSILKQAVEEATVKAPLRHNAVEIFDEVNTGKNTGSGVPWVTWDIIPDNDDAEIEVYMAGGGCTLPGRSKVLMPSEGYEGVVKFVFENISTLAVNACPPVLVGVGIATSVETAAVLSRKAILRPIGSRHPNPKAAELELRLEEGLNRLGIGPQGLTGNSSVMGVHIESAARHPSTIGVAVSTGCWAHRRGTLLVHADLTFENLSHTRSAL | – | 6.19 h | 6.18 h | 6.4 h | – | – | – | – | 6.42 h | – | 5.88 h | –
4 | MMSFQKIYSPTQLANAMKLVRQQNGWTQSELAKKIGIKQATISNFENNPDNTTLTTFFKILQSLELSMTLCDAKNASPESTEQQNLEW | – | – | – | – | – | – | – | 11.7 h | 4.64 h | – | – | 12 ± 0.84 h
5 | MMSKINQTDIDRLIELVGGRGNIATVSHCITRLRFVLNQPANARPKEIEQLPMVKGCFTNAGQFQVVIGTNVGDYYQALIASTGQAQVDKEQVKKAARHNMKWHEQLISHFAVIFFPLLPALISGGLILGFRNVIGDLPMSNGQTLAQMYPSLQTIYDFLWLIGEAIFFYLPVGICWSAVKKMGGTPILGIVLGVTLVSPQLMNAYLLGQQLPEVWDFGMFSIAKVGYQAQVIPALLAGLALGVIETRLKRIVPDYLYLVVVPVCSLILAVFLAHALIGPFGRMIGDGVAFAVRHLMTGSFAPIGAALFGFLYAPLVITGVHQTTLAIDLQMIQSMGGTPVWPLIALSNIAQGSAVIGIIISSRKHNEREISVPAAISAWLGVTEPAMYGINLKYRFPMLCAMIGSGLAGLLCGLNGVMANGIGVGGLPGILSIQPSYWQVFALAMAIAIIIPIVLTSFIYQRKYRLGTLDIV | – | – | – | – | 2.51 h | 2.85 ± 0.2 h | 4.23 ± 0.33 h | 6.59 ± 0.51 h | – | – | 4.13 h | 6.92 h
6 | MMTKTQINKLIKMMNDLDYPFEAPLKESFIESIIQIEFNSNSTNCLEKLCNEVSILFKNQPDYLTFLRAMDGFEVNGLRLFSLSIPEPSVKNLFAVNEFYRNNDDFINPDLQERLVIGDYSISIFTYDIKGDAANLLI | 4.14 h | – | – | – | – | – | – | – | – | – | – | –
7 | MMVQHLKRRPLSRYLKDFKHSQTHCAHCRKLLDRITLVRDGKIVNKIEISRLDTLLDENGWQTEQKSWAALCRFCGDLHCKTQSDFFDIIGFKQFLFEQTEMSPGTVREYVVRLRRLGNHLHEQNISLDQLQDGFLDEILAPWLPTTSTNNYRIALRKYQHYQRQTCTRLVQKSSSLPSSDIY | 6.005 ± 0.037 h | – | – | – | – | 0.828 ± 0.34 h | – | 1.23 h | – | – | – | –
8 | MMYRIRNWLVATLLLLCTPVGAATLSDIQVSNGNQQARITLSFIGDPDYAFSHQSKRTVALDIKQTGVIQGLPLLFSGNNLVKAIRSGTPKDAQTLRLVVDLTENGKTEAVKRQNGSNYTVVFTINADVPPPPPPPPVVAKRVETPAVVAPRVSEPARNPFKTESNRTTGVISSNTVTRPAARATANTGDKIIIAIDAGHGGQDPGAIGPGGTREKNVTIAIARKLRTLLNDDPMFKGVLTRDGDYFISVMGRSDVARKQNANFLVSIHADAAPNRSATGASVWVLSNRRANSEMASWLEQHEKQSELLGGAGDVLANSQSDPYLSQAVLDLQFGHSQRVGYDVATSMISQLQRIGEIHKRRPEHASLGVLRSPDIPSVLVETGFISNNSEERLLASDDYQQQLAEAIYKGLRNYFLAHPMQSAPQGATAQTASTVTTPDRTLPN | 2.15 ± 0.036 h | 2.05 ± 0.41 h | 2.71 ± 1.6 h | 1.97 ± 0.085 h | 1.74 ± 0.34 h | 1.64 ± 0.18 h | 2.63 ± 0.23 h | 4.87 ± 1.5 h | 2.54 ± 0.74 h | 2.65 ± 0.31 h | 3.4 ± 3.2 h | 2.92 ± 1.1 h
